This note sets out measurements from article PMC4101993 (Nature structural & molecular biology, 2014).

This series concerns the molecule itself. Kind of series: SEC-MALS. A general note: SEC sorts molecules by how far they enter the pores of the column.

B1: Purified EttA (gel filtration with static light scattering) (natural protein, E. coli)
chain: MAQFVYTMHRVGKVVPPKRHILKNISLSFFPGAKIGVLGLNGAGKSTLLRIMAGIDKDIEGEARPQPDIKIGYLPQEPQLNPEHTVRESIEEAVSEVVNALKRLDEVYALYADPDADFDKLAAEQGRLEEIIQAHDGHNLNVQLERAADALRLPDWDAKIANLSGGERRRVALCRLLLEKPDMLLLDEPTNHLDAESVAWLERFLHDFEGTVVAITHDRYFLDNVAGWILELDRGEGIPWEGNYSSWLEQKDQRLAQEASQEAARRKSIEKELEWVRQGTKGRQSKGKARLARFEELNSTEYQKRNETNELFIPPGPRLGDKVLEVSNLRKSYGDRLLIDDLSFSIPKGAIVGIIGPNGAGKSTLFRMISGQEQPDSGTITLGETVKLASVDQFRDSMDNSKTVWEEVSGGLDIMKIGNTEMPSRAYVGRFNFKGVDQGKRVGELSGGERGRLHLAKLLQVGGNMLLLDEPTNDLDIETLRALENALLEFPGCAMVISHDRWFLDRIATHILDYQDEGKVEFFEGNFTEYEEYKKRTLGADALEPKRIKYKRIAK
For B1, the stoichiometry N (in general, the number of molecules, sites or subunits per partner or assembly) was 2.
